Reference: patent publication US20140322225A1 (ADRENOMED, published 2014)

What was measured:
[1] = target: human recombinant adrenomedullin receptor (CRLR+RAMP3) (human); assay: cell-based or functional assay
[2] = target: human adrenomedullin (hADM 1-52) (human); assay: cell-based or functional assay
[3] = target: human adrenomedullin (hADM 1-52) (human); assay: cell-based or functional assay; remark: listed apart in the source
[4] = target: T1, human adrenomedullin (hADM 1-52) (human); assay: SPR (Biacore 2000), antibody captured via anti-mouse Fc, adrenomedullin as analyte
T1 construct: 52 amino acids, aa 95-146 of pre-proADM; also called Human ADM 1-52
T1 sequence (peptide, as listed by the source): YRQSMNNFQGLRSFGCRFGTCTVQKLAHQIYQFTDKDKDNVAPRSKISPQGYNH
Protocol: Reversible immobilization of the antibodies was performed using an anti-mouse Fc antibody covalently coupled in high density to a CM5 sensor surface according to the manufacturer's instructions (mouse antibody capture kit; GE Healthcare). (Lorenz et al., “Functional Antibodies Targeting IsaA of Staphylococcus aureus Augment-lost Immune Response and Open New Perspectives for Antibacterial Therapy”; Antimicrob Agents Chemother. 2011 January; 55(1): 165-173.)

EC50 (read off the curve), cAMP formation [1] | IC50 (read off the curve), half of the antibody's own maximal inhibition of cAMP formation induced by 5.63 nM hADM [2] | fold stability of hADM in human citrate plasma with NT-H against hADM alone (7.8 h) [3] | Kd [4] | Binder
~0.08 nM |  |  |  | mouse adrenomedullin (mADM 1-50) (peptide) peptide: YRQSMNQGSRSNGCRFGTCTFQKLAHQIYQLTDKDKDGMAPRNKISPQGYNH
 | ~2 µg/mL | 2.3 fold | 5.9 nM | NT-H (antibody, V domains shown, also called NT-H antibody; antibody NT-H) VH: QVQLQQSGAELMKPGASVKISCKATGYTFSRYWIEWVKQRPGHGLEWIGEILPGSGSTNYNEKFKGKATITADTSSNTAYMQLSSLTSEDSAVYYCTEGYEYDGFDYWGQGTTLTVSS VL: DVLLSQTPLSLPVSLGDQATISCRSSQSIVYSNGNTYLEWYLQKPGQSPKLLIYRVSNRFSGVPDRFSGSGSGTDFTLKISRVEAEDLGVYYCFQGSHIPYTFGGGTKLEIK
